# Experimental data as given in article PMC4414194.
# How the values were obtained:
# HDAC4 = HDAC4 (UniProt P56524); test: anti-GFP co-IP, anti-Flag blot; conditions: reference: GATA1 wild type; sites S161,S187
# HDAC3 = HDAC3 (UniProt O15379); test: anti-GFP co-IP, anti-Flag blot; conditions: reference: GATA1 wild type; sites S161,S187
substance,measurement,setting,value
GATA1 (from UniProt P15976) GATA1 S161A S187A,binding against the reference,HDAC4,weaker
same,binding against the reference,HDAC3,weaker
